The target in data set [1] is ErbB-3-Ig. The data set is described as follows: Inhibition of 125I-HRG-β1 177-244 binding to ErbB-3-Ig by soluble protein. Here is the method: (§1) The affinities of the Trx-variant fusions for ErbB receptor-Ig fusions were determined by measuring inhibition of ^125 I-HRG-β1 177-244 binding to ErbB-3-Ig and ErbB-4-Ig. Receptor fusions were coated on plates (Nunc Maxisorp C™ break-apart strip wells, Inter Med, Denmark) via anti-human IgG, as described in Example 1 for phage ELISA. Binding assays were carried out with a constant amount of ^125 I-HRG-β1 177-244 (100-300 pM) and varying concentrations (100 pM-4 μM) of unlabeled Trx-variant fusion. Following incubation for 1-3 h at room temperature, plates were washed, and the amount of bound ^125 I-HRG-β1 177-244 in each well was counted on a gamma counter (Isodata, ICN Biomedic Systems, Huntsville, Ala.). For the ErbB-3 binding assays, the blocking buffer was TBST (0.025 M Tris-HC1 [pH 7.5], 0.15 M NaCl, 0.02% Tween 20™) containing 1% BSA; the binding buffer was RPMI 1640™ cell culture media (Gibco-BRL, Gaithersburg, Md.) containing 2 mM glutamine, 100 U/mL penicillin, 100 μg/mL streptomycin, 10 mM HEPES buffer (pH 7.2), 0.2% BSA; and the wash buffer was TBST. For the ErbB-4 binding assays, PBS containing 1% BSA was used as the blocking and binding buffers, and the wash buffer was PBS containing 0.05% Tween 20™.

Data set [2] addresses ErbB-3-Ig. The data set is described as follows: Phage ELISA, binding to ErbB-3-Ig. The note with it: for Phage ErbB-3 EC50 (wt)/EC50 (mut): relative to wild-type HRG-β1 EGF phage in same run, above 1 = higher affinity than wild-type. From the text:
(§2) To produce phage displaying the domains, mutagenesis reaction mixtures were electrotransformed into XL1-Blue™ cells (Stratagene, Inc., La Jolla, Calif.), according to the manufacturer's protocol. The transformed cells were then infected with 10^11 plaque-forming units (pfu) M13K07 helper phage (Promega Corp., Madison, Wis.). […] The phage were resuspended in phosphate-buffered saline (PBS: 0.01 M sodium phosphate, 0.1 M NaCl, pH 7.5).
(§3) Microtiter plates (Nunc Maxisorp™ 96-well plates, Inter Med, Denmark) for phage ELISA were prepared as follows. The wells were precoated overnight with 0.5 μg of rabbit anti-human IgG (Fc gamma fragment-specific) antibodies (Jackson Immunoresearch, West Grove, Pa.) in 100 μL 50 mM NaCO3 (pH 9.6). The wells were blocked for 30 minutes (min) with 200 μL PBS containing 0.1% bovine serum albumin (BSA) and rinsed with wash buffer (PBS containing 0.05% Tween 20™). The wells were then coated with 0.1 μg ErbB-2/3-Ig in binding buffer (PBS, 0.1% BSA, 0.05% Tween 20™) for 1 h, and washed again.
(§4) Following incubation for 2 h at room temperature, plates were washed extensively and treated with a 1:900 dilution of anti-M13 horseradish peroxidase conjugate (Pharmacia, Piscataway, N.J.) for 20 min. The amount of phage binding was determined by assaying horseradish peroxidase activity using o-phenylenediamine dihydrochloride) substrate solution (Sigma Chemical Company, St. Louis, Mo.).
(§5) Alanine-substituted variants were generated by site-directed mutagenesis according to Kunkel et al., Methods Enzymol. […] A series of oligonucleotides was used to generate a series of constructs that expressed a series of variants in which consecutive residues were mutated to alanine.
(§6) In addition, phagemid vectors for use in producing phage displaying mutated HRG-β1 EGFs containing various combinations of the above mutations ("combination variants") were prepared by Kunkel mutagenesis, using templates prepared from several of the above-described variants. […] Some of the variants and combination variants were also tested for relative ErbB-4-Ig affinity to assess specificity.
(§7) The affinities of the variants for ErbB-3-Ig and ErbB-4-Ig were determined to assess specificity.

Data set [3] addresses ErbB-4-Ig. The experiment in a line: Phage ELISA, binding to ErbB-4-Ig. The note with it: for Phage ErbB-4 EC50 (wt)/EC50 (mut): relative to wild-type HRG-β1 EGF phage in same run, above 1 = higher affinity than wild-type.
Description: as §2, §3, §4, §5, §6, §7
(In general: In an ELISA, binding on a coated surface is turned into a signal by an enzyme label.)

Data set [4] concerns the target ErbB-2/3 receptor-Ig fusion (ErbB-2/3-Ig). The experiment in a line: Phage ELISA, competition with soluble ErbB-2/3-Ig. The data set is classed as binding. The note with it: EGF-like domain displayed monovalently on phage as pIII fusion; soluble ErbB-2/3-Ig competing half of the phage off the plate; average of duplicate experiments.
Description: as §2, §3, §4

In another data set the test system is ErbB-2/3-Ig. The experiment in a line: Inhibition of 125I-HRG binding to ErbB-2/3-Ig by soluble variant.
Data set [5] has as its target ErbB-4-Ig. The experiment in a line: Inhibition of 125I-HRG-β1 177-244 binding to ErbB-4-Ig by soluble protein. As to the method:
as §1

For data set [6], the target named is ErbB-3 receptor-Ig fusion (human) (UniProt P21860). The data set is described as follows: phage ELISA, soluble ErbB-3-Ig as competitor (only one value in the row, read as the phage column).
Data set [7] addresses ErbB-4 receptor-Ig fusion (human) (UniProt Q15303). The data set is described as follows: phage ELISA, soluble ErbB-4-Ig as competitor.
The target in data set [8] is ErbB-2/3 receptor-Ig fusion (human) (UniProt P04626). The experiment in a line: phage ELISA, soluble ErbB-2/3-Ig as competitor.
In data set [9] the target is ErbB-3 receptor-Ig fusion (human) (UniProt P21860). The experiment in a line: phage ELISA, soluble ErbB-3-Ig as competitor.
The target of data set [10] is ErbB-4 receptor-Ig fusion (human) (UniProt Q15303). The experiment in a line: phage ELISA, ratio to wild-type HRG8 phage (reference itself).
Data set [11] concerns the target ErbB-3 receptor-Ig fusion (human) (UniProt P21860). The description is as above.
The target of data set [12] is ErbB-4 receptor-Ig fusion (human) (UniProt Q15303). The experiment in a line: phage ELISA, soluble ErbB-4-Ig as competitor. The source holds these as a separate data set.
The target is the same in data set [13]. The experiment in a line: displacement of 125I-HRG from ErbB-4-Ig. Background: In a radioligand displacement assay an active substance lowers the binding of a labelled ligand.
Data set [14] concerns the target ErbB-2/3 heterodimers on MCF7 breast cancer carcinoma cells (Homo sapiens (Human), UniProt P04626). The data set is described as follows: cell-based or functional assay.
Data set [15] deals with ErbB-3 receptor-Ig fusion (human) (UniProt P21860). The experiment in a line: displacement of 125I-HRG from ErbB-3-Ig.
Data set [16] addresses ErbB-2/3 receptor-Ig fusion (human) (UniProt P04626). The experiment in a line: displacement of 125I-HRG from ErbB-2/3-Ig.
Data set [17] has as its target ErbB-4 receptor-Ig fusion (human) (UniProt Q15303). The experiment in a line: phage ELISA, ratio to wild-type HRG8 phage.
Data set [18] concerns the target ErbB-3 receptor-Ig fusion (human) (UniProt P21860). The experiment in a line: phage ELISA, ratio to wild-type HRG8 phage.

Numbering of substitutions follows the chain as printed. Ends that are not written are not given here.

On to “HRG8: wild-type HRG-β1 177-228 minimal EGF-like domain; on phage via (GGGS)3 linker to pIII 323, or soluble (SHLVKCAEKEKTFCVNGGECFMVKDLSNPSRYLCKCPNEFTGDRCQNYVMAS; not fully specified; cysteine pairing not given here) [reference compound]”, for which the EC50 (as a rule, the concentration needed to bring the measured effect to its halfway point) at ErbB-3-Ig [1] (soluble HRG-β1 EGF variant free of pIII, inhibition of 125I-HRG binding, read-out: ErbB-3-Ig EC50) is 2.3 ± 0.2 nM; at ErbB-3-Ig [2] (phage ELISA, reference value of Table 13, read-out: wild-type HRG-β1 EGF-phage EC50 for ErbB3-Ig) it was 135 ± 104 nM; on ErbB-4-Ig [3] (phage ELISA, reference value of Table 13, read-out: wild-type HRG-β1 EGF-phage EC50 for ErbB4-Ig) it was 163 ± 112 nM; in data set [4] it was 11 nM; at ErbB-2/3-Ig (soluble HRG-β1 EGF variant free of pIII, inhibition of 125I-HRG binding) it was 0.033 ± 0.003 nM; on ErbB-4-Ig [5] (soluble HRG-β1 EGF variant free of pIII, inhibition of 125I-HRG binding, read-out: ErbB-4-Ig EC50), 1.5 ± 0.1 nM. In addition, the “Phage ErbB-3 EC50 (wt)/EC50 (mut)” value in the data set on ErbB-3-Ig [2] (phage ELISA) amounted to 1. Further, the “Phage ErbB-4 EC50 (wt)/EC50 (mut)” value in the data set on ErbB-4-Ig [3] (phage ELISA) is 1. Further, the “ErbB-2/3-Ig EC50” value in [4] was “slight affinity enhancement”. Moreover, the “affinity for the 2/3-heterodimer versus the 3/3 homodimer” value in the data set with ErbB-2/3-Ig (ErbB-2/3-Ig versus ErbB-3-Ig homodimer) is listed as “approximately 100 fold”.
As to “G1: K211R, P213S, N214L (SHLVKCAEKEKTFCVNGGECFMVKDLSNPSRYLCRCSLEFTGDRCQNYVMAS)”, the “Phage ErbB-3 EC50 (wt)/EC50 (mut)” value in the data set with ErbB-3-Ig [2] (phage ELISA) was determined as 1.2 ± 0.36. Moreover, the “Phage ErbB-4 EC50 (wt)/EC50 (mut)” value with ErbB-4-Ig [3] (phage ELISA) amounted to 1.6.
For the molecule HRG-β1 177-244 V199A on phage (ligand), the concentration for a half-maximal effect (EC50) in data set [6] amounted to 27 nM; in data set [7], 47 nM.

B1: HRG8 (wild-type HRG-β1 EGF displayed on phage) (ligand)
chain: SHLVKCAEKEKTFCVNGGECFMVKDLSNPSRYLCKCPNEFTGDRCQNYVMAS
In the case of B1, the half-maximal effective concentration (EC50) came out at 11 nM in data set [8], 135 nM in data set [9] and 163 nM in [12]. Moreover, the EC50(wt)/EC50(mut) in data set [10] and in [11] was 1 each time.

B2: HRG8 (WT), soluble wild-type HRG-β1 EGF (ligand)
chain: B1 chain
modifications: ends and bridges not checked; cysteine pairing not given here
B2: the values for the EC50 in data set [13], in data set [15] and in data set [16] were 1.5 nM, 2.3 nM and 0.033 nM, respectively. The “KIRA EC50 (tyrosine phosphorylation of the ErbB-2 receptor on MCF7 cells)” value in [14] was 0.212 nM.

B3: B3 (phage) (ligand)
chain: B1 chain with A7G, K9E, E10R, K11E, T12G
As to B3, the EC50(wt)/EC50(mut) came out at 1.7 in [17] and 4.7 in data set [18].

B4: D4 (phage) (ligand)
chain: B1 chain with F21Y, M22R, D25T
In the case of B4, the EC50(wt)/EC50(mut) in [17] amounted to 5; in [18], 2.9.

B5: I2 (phage) (ligand)
chain: B1 chain with N47H, M50I
On to B5, for which the EC50(wt)/EC50(mut) was determined as 10 in data set [17] and 20 in data set [18].

B6: HRG2 (HRG-β1 177-244 displayed on phage) (ligand)
chain: SHLVKCAEKEKTFCVNGGECFMVKDLSNPSRYLCKCPNEFTGDRCQNYVMASFYKHLGIEFMEAEELY
Turning to B6, the EC50 in data set [8] amounted to 6 nM; in [9], 13 nM; in data set [12], 19 nM.

B7: HRG-β1: recombinantly produced HRGβ1 177-244 (wild-type) (protein)
chain: B6 chain
modifications: ends and bridges not checked
Regarding B7, the 50% effective concentration (EC50) came out at 9 nM at ErbB-3-Ig [1] (soluble thioredoxin (Trx) fusion, inhibition of 125I-HRG-β1 177-244 binding, read-out: Sol EC50, binding to the ErbB-3 Receptor); 13 nM at ErbB-3-Ig [2] (alanine-substituted HRG-β1 177-244 displayed on phage, read-out: Phage EC50, binding to the ErbB-3 Receptor); 19 nM at ErbB-4-Ig [3] (alanine-substituted HRG-β1 177-244 displayed on phage, read-out: Phage EC50, binding to the ErbB-4 Receptor); 14.8 nM at ErbB-4-Ig [5] (soluble thioredoxin (Trx) fusion, inhibition of 125I-HRG-β1 177-244 binding, read-out: Sol EC50, binding to the ErbB-4 Receptor).

These data come from patent US6136558A, “Heregulin variants” (Genentech, Inc., priority 1998, dated 2000).
